In patent publication US9481899B2, “Methods and compositions for producing hydrocarbons” (priority 2008, dated 2016):
Like-named read-outs stand apart in the source and are kept apart here.

T1: PCC7942_orf1594 protein (Synechococcus elongatus, UniProt Q54765)
T1 construct: made in house; host or cells: E. coli BL21 (DE3)
T1 sequence (Q54765 1-341): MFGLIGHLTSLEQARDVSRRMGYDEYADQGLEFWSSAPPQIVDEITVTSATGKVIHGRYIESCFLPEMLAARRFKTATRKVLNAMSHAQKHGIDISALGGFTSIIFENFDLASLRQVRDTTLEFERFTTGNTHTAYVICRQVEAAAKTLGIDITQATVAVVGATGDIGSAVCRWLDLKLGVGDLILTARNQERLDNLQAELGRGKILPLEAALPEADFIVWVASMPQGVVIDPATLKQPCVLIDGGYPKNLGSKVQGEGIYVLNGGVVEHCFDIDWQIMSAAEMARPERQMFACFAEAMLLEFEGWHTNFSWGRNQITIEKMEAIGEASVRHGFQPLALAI


Tests used:
[1] = target: T1, PCC7942_orf1594 protein; assay: Acyl-ACP or acyl-CoA reductase enzyme assay; assay type: biochemical, Synechococcus elongatus PCC7942; settings: for reduction to fatty aldehyde: 10 μM enzyme, MgCl2, NADPH, 1 h at 37° C.
Method: The genomic DNA encoding S. elongatus […] orf1594 (SEQ ID NO:65) was cloned into the NcoI and XhoI sites of vector pET-28b under the control of the T7 promoter. The resulting PCC7942_orf1594 protein contained a C-terminal His-tag. An E. coli BL21 strain (DE3) (Invitrogen) was transformed with the plasmid and PCC7942_orf1594 protein was expressed and purified as described in Example 22. The protein solution was stored in the following buffer: 50 mM sodium phosphate, pH 7.5, 100 mM NaCl, 1 mM THP, 10% glycerol. Protein concentration was determined using the Bradford assay (Biorad). 2 mg/mL of PCC7942_orf1594 protein was obtained.
To test PCC7942_orf1594 protein for acyl-ACP or acyl-CoA reductase activity, the following enzyme assays were set-up. 100 μL reactions were set-up in 50 mM Tris-HCl buffer at pH 7.5 with the following components at their respective final concentrations: 10 μM of purified PCC7942_orf1594 protein, 0.01-1 mM acyl-CoA or acyl-ACP, 2 mM MgCl2, 0.2-2 mM NADPH. The reactions were incubated for 1 h at 37° C. and where stopped by adding 100 μL ethyl acetate (containing 5 mg/l 1-octadecene as internal standard). Samples were vortexed for 15 min and centrifuged at max speed for 3 min for phase separation. 80 μL of the top layer were transferred into GC glass vials and analyzed by GC/MS as described in Example 26. The amount of aldehyde formed was calculated based on the internal standard.
Next, the stereospecific hydride transfer from NADPH to a fatty aldehyde catalyzed by PCC7942_orf1594 was examined. Deutero-NADPH was prepared according to the following protocol. 5 mg of NADP and 3.6 mg of D-glucose-1-d was added to 2.5 mL of 50 mM sodium phosphate buffer (pH 7.0). Enzymatic production of labeled NADPH was initiated by the addition of 5 units of glucose dehydrogenase from either Bacillus megaterium (USB Corporation) for the production of R-(4-^2H)NADPH or Thermoplasma acidophilum (Sigma) for the production of S-(4-^2H)NADPH. The reaction was incubated for 15 min at 37° C., centrifuge-filtered using a 10 KDa MWCO Amicon Ultra centrifuge filter (Millipore), flash frozen on dry ice, and stored at −80° C.
The in vitro assay reaction contained 50 mM Tris-HCl (pH 7.5), 10 μM of purified PCC7942_orf1594 protein, 1 mM octadecanoyl-CoA, 2 mM MgCl2, and 50 μL deutero-NADPH (prepared as described above) in a total volume of 100 μL. After a 1 h incubation, the product of the enzymatic reaction was extracted and analyzed as described above. The resulting fatty aldehyde detected by GC/MS was octadecanal (see FIG. 34). Because hydride transfer from NADPH is stereospecific, both R-(4-^2H)NADPH and S-(4-^2H)NADPH were synthesized.

[2] = tested on: E. coli MG1655 ΔfadD lacZ::Ptrc-′tesA; assay: Decarbonylase expression in fatty aldehyde-producing E. coli strain expressing MSMEG_5739; assay type: cell-based; settings: coexpressed with M. smegmatis carboxylic acid reductase MSMEG_5739
[3] = tested on: E. coli MG1655; assay: Coexpression of decarbonylase and aldehyde-generating enzyme in E. coli, GC-MS of hydrocarbons; assay type: cell-based; settings: for Production of Alkanes and Alkenes: alkane/alkene biosynthetic polypeptide coexpressed in E. coli with the aldehyde biosynthetic polypeptide of the same table row; for fatty aldehyde decarbonylase activity in E. coli: cotransformed with S. elongatus PCC7942_1594 into E. coli MG1655, M9 minimal media, 37° C.
Excerpt: Seven cyanobacteria, whose complete genome sequences are publicly available, were selected for verification and/or detection of alkane biosynthesis: Synechococcus elongatus PCC7942, Synechococcus elongatus PCC6301, Anabaena variabilis ATCC29413, Synechocystis sp. PCC6803, Nostoc punctiforme PCC73102, Gloeobacter violaceus ATCC 29082, and Prochlorococcus marinus CCMP1986. Only the first three cyanobacterial strains from this list had previously been reported to contain alkanes (Han et al., J. Am. Chem. Soc. 91:5156-5159 (1969); Fehler et al., Biochem. 9:418-422 (1970)). The strains were grown photoautotrophically in shake flasks in 100 mL of the appropriate media (listed in Table 8) for 3-7 days at 30° C. at a light intensity of approximately 3,500 lux. Cells were extracted for alkane detection as follows: cells from 1 mL culture volume were centrifuged for 1 min at 13,000 rpm, the cell pellets were resuspended in methanol, vortexed for 1 min and then sonicated for 30 min. After centrifugation for 3 min at 13,000 rpm, the supernatants were transferred to fresh vials and analyzed by GC-MS. The samples were analyzed on either 30 m DP-5 capillary column (0.25 mm internal diameter) or a 30 m high temperature DP-5 capillary column (0.25 mm internal diameter) using the following method.
After a 1 μL splitless injection (inlet temperature held at 300° C.) onto the GC/MS column, the oven was held at 100° C. for 3 mins. The temperature was ramped up to 320° C. at a rate of 20° C./min. The oven was held at 320° C. for an additional 5 min. The flow rate of the carrier gas helium was 1.3 mL/min. The MS quadrapole scanned from 50 to 550 m/z. Retention times and fragmentation patterns of product peaks were compared with authentic references to confirm peak identity.
The genomic DNA encoding Synechococcus elongatus PCC7942 orf1594 (YP_400611; putative aldehyde-generating enzyme) (SEQ ID NO:65) was amplified and cloned into the NcoI and EcoRI sites of vector OP-80 (pCL1920 derivative) under the control of the Ptrc promoter. The resulting construct (“OP80-PCC7942_1594”) was transformed into E. coli MG1655 and the cells were grown at 37° C. in M9 minimal media with 1% (w/v) glucose as carbon source and supplemented with 100 μg/mL spectinomycin. When the culture reached OD600 of 0.8-1.0, it was induced with 1 mM IPTG and cells were grown for an additional 18-20 h at 37° C. Cells from 0.5 mL of culture were extracted with 0.5 mL of ethyl acetate. After sonication for 60 min, the sample was centrifuged at 15,000 rpm for 5 min. The solvent layer was analyzed by GC-MS as described in Example 1.
The genomic DNA encoding Synechococcus elongatus PCC7942 orf1593 (YP_400610; putative decarbonylase) (SEQ ID NO:1) was amplified and cloned into the NdeI and XhoI sites of vector OP-183 (pACYC derivative) under the control of the Ptrc promoter. The resulting construct was cotransformed with OP80-PCC7942_1594 into E. coli MG1655 and the cells were grown at 37° C. in M9 minimal media supplemented with 100 μg/mL spectinomycin and 100 μg/mL carbenicillin. The cells were cultured and extracted as in Example 3 and analyzed by GC-MS as described in Example 1. […]

[4] = in the presence of 2 mM NADPH, read-out: Km for the reduction

Row | Molecule | reduction to fatty aldehyde [1] | conversion of fatty aldehydes provided by MSMEG_5739 to alkanes [2] | Production of Alkanes and Alkenes [3] | fatty aldehyde decarbonylase activity in E. coli [3] | other results
1 | CCCCCCCCCCCCCCCCCC(=O)SCCNC(=O)CCNC(=O)[C@H](O)C(C)(C)COP(=O)(O)OP(=O)(O)OC[C@H]1O[C@@H](n2cnc3c(N)ncnc32)[C@H](O)[C@@H]1OP(=O)(O)O [octadecanoyl-CoA] | able to reduce | – | – | – | –
2 | NC(=O)C1=CN([C@@H]2O[C@H](COP(=O)(O)OP(=O)(O)OC[C@H]3O[C@@H](n4cnc5c(N)ncnc54)[C@H](O)[C@@H]3O)[C@@H](O)[C@H]2O)C=CC1 [NADH] | – | – | – | – | support of reductase activity as electron donor ([1]; octadecanoyl-CoA, Mg2+): did not support reductase activity
3 | octadecenoyl-CoA | able to reduce | – | – | – | Km [1, 4]: 82 ± 22 µM
4 | [2H]C1C=CN(C2OC(COP(=O)(O)OP(=O)(O)OCC3OC(n4cnc5c(N)ncnc54)C(OP(=O)(O)O)C3O)C(O)C2O)C=C1C(N)=O (stereo not drawn) [S-(4-^2H)NADPH] | – | – | – | – | stereospecific hydride transfer to fatty aldehyde ([1]; 1 mM octadecanoyl-CoA, deutero-NADPH, 1 h): Octadecanal with a plus one unit mass was observed
5 | NADPH | – | – | – | – | Km ([1]; in the presence of 0.5 mM octadecanoyl-CoA, read-out: Km value for NADPH): 400 ± 80 µM
6 | octadecenoyl-ACP | able to reduce | – | – | – | Km [1, 4]: 7.8 ± 2 µM
7 | SEQ ID NO: 15: Gloeobacter violaceus PCC7421 gll3146, putative decarbonylase (protein, listed as Gloeobacter violaceus) VNRTAPSSAALDYRSDTYRDAYSRINAIVLEGEREAHANYLTLAEMLPDHAEALKKLAAMENRHFKGFQSCARNLEVTPDDPFARAYFEQLDGNFQQAAAEGDLTTCMVIQALIIECFAIAAYNVYIPVADAFARKVTEGVVKDEYTHLNFGQQWLKERFVTVREGIERANAQNLPIVWRMLNAVEADTEVLQMDKEAIVEDFMIAYGEALGDIGFSMRDVMKMSARGLASAPRQ | – | converted fatty aldehydes provided by MSMEG_5739 to the corresponding alkanes | yes | active fatty aldehyde decarbonylase | –
8 | SEQ ID NO: 7: Nostoc sp. PCC7210 alr5283, putative decarbonylase (protein, listed as Nostoc sp.) MQQVAADLEIDFKSEKYKDAYSRINAIVIEGEQEAYENYIQLSQLLPDDKEDLIRLSKMESRHKKGFEACGRNLQVSPDMEFAKEFFAGLHGNFQKAAAEGKIVTCLLIQSLIIECFAIAAYNIYIPVADDFARKITEGVVKDEYSHLNFGEVWLQKNFAQSKAELEEANRHNLPIVWKMLNQVADDAAVLAMEKEALVEDFMIQYGEALSNIGFTTRDIMRMSAYGLTAA | – | converted fatty aldehydes provided by MSMEG_5739 to the corresponding alkanes | yes | active fatty aldehyde decarbonylase | –
9 | SEQ ID NO: 9: Acaryochloris marina MBIC11017 AM1_4041, putative decarbonylase (protein, listed as Acaryochloris marina) MPQTQAISEIDFYSDTYKDAYSRIDGIVIEGEQEAHENYIRLGEMLPEHQDDFIRLSKMEARHKKGFEACGRNLKVTCDLDFARRFFSDLHKNFQDAAAEDKVPTCLVIQSLIIECFAIAAYNIYIPVADDFARKITESVVKDEYQHLNYGEEWLKAHFDDVKAEIQEANRKNLPIVWRMLNEVDKDAAVLGMEKEALVEDFMIQYGEALSNIGFSTGEIMRMSAYGLVAA | – | converted fatty aldehydes provided by MSMEG_5739 to the corresponding alkanes | yes | active fatty aldehyde decarbonylase | –
10 | SEQ ID NO: 5: Nostoc punctiforme PCC73102 Npun02004178, putative decarbonylase (protein, Nostoc punctiforme, Nostoc punctiforme PCC73102 Npun02004178, putative decarbonylase) MQQLTDQSKELDFKSETYKDAYSRINAIVIEGEQEAHENYITLAQLLPESHDELIRLSKMESRHKKGFEACGRNLAVTPDLQFAKEFFSGLHQNFQTAAAEGKVVTCLLIQSLIIECFAIAAYNIYIPVADDFARKITEGVVKEEYSHLNFGEVWLKEHFAESKAELELANRQNLPIVWKMLNQVEGDAHTMAMEKDALVEDFMIQYGEALSNIGFSTRDIMRLSAYGLIGA | – | converts tetradecanal, hexadecenal and hexadecanal provided by the carboxylic acid reductase MSMEG_5739 to tridecane, pentadecene and pentadecane | yes | active fatty aldehyde decarbonylase | –
